Laboratory results taken from EP4725501A1.
pEC50: −log10 of the molar value. Read-outs that look alike come from different tables or passages of the source.

How the values were obtained:
[1] = molecular target: MASP3 in Factor D depleted human plasma (human) (UniProt P48740); experiment: cell-based or functional assay
human MASP3-His (human) [2] = molecular target: human MASP3-His (human) (UniProt P48740); experiment: cell-based or functional assay
[3] = molecular target: MASP3 in Factor D depleted human plasma (human) (UniProt P48740); experiment: cell-based or functional assay; remark: listed apart in the source
human MASP3-His (human) [4] = molecular target: human MASP3-His (human) (UniProt P48740); experiment: ELISA; antigen coated 0.1 ug/well, antibody titrated, goat anti-human IgG-HRP
[5] = molecular target: monkey MASP3-His (monkey); experiment: as above
mouse MASP3-His (mouse) = mouse MASP3-His (mouse) (UniProt P98064); experiment: as above
Chain of mouse MASP3-His (mouse) (P98064 other isoform, or with tags, fused parts or gaps): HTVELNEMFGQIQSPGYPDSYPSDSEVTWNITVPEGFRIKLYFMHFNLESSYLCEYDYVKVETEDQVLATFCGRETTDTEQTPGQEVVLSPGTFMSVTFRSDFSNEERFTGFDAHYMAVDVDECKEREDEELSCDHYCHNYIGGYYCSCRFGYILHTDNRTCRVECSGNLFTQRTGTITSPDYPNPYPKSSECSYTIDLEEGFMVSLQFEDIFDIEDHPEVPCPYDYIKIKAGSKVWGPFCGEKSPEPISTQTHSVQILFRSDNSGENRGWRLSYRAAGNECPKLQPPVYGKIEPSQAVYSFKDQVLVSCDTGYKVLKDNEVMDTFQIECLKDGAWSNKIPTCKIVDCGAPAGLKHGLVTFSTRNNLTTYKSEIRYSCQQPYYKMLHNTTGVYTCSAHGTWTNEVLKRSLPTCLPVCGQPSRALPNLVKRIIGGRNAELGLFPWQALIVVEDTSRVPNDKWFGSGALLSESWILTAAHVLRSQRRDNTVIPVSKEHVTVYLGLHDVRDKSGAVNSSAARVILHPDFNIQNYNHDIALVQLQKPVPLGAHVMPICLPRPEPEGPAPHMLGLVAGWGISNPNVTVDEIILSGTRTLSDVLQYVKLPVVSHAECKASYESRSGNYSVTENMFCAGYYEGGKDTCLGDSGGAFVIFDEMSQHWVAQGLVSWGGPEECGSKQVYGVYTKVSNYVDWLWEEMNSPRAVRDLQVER

Chain of MASP3 in Factor D depleted human plasma (human) (P48740 other isoform, or with tags, fused parts or gaps): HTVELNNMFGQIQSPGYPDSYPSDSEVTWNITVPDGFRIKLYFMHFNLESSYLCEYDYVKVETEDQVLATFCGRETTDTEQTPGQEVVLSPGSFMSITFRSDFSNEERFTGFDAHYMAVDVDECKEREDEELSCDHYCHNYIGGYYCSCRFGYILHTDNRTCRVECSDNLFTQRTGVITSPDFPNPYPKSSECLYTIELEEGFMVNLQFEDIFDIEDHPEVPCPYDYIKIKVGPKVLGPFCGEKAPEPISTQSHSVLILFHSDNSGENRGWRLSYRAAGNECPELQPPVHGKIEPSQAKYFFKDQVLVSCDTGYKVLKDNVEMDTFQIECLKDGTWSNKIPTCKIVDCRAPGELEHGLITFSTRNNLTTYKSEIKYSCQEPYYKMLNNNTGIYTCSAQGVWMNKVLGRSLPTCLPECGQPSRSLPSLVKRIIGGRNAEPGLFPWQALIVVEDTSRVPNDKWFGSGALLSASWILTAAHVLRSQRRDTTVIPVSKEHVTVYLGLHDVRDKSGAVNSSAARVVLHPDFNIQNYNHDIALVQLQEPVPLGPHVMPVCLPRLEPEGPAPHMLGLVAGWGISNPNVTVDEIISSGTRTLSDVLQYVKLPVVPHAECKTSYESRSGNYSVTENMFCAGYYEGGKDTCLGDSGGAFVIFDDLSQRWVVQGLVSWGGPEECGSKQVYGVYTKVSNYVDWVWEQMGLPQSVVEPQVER
Chain of human MASP3-His (human) (P48740 other isoform, or with tags, fused parts or gaps): as above

OMS906 (antibody)
Inhibit hemolysis IC50 [1]: 17.1 nM
IC50 (nM), inhibition of MASP3 enzyme activity (cleavage of fluorescent tripeptide Boc-Val-Pro-Arg-AMC) (human MASP3-His (human) [2]): 200 nM
Inhibit hemolysis IC50 [3]: 13 nM
pEC50 (human MASP3-His (human) [4]): 9.01
pEC50 [5]: 8.53
pEC50 (mouse MASP3-His (mouse)): 8.27
